Source: patent US20250333541A1, “ANTIBODY, AND DRUG CONJUGATE AND USE THEREOF” (EVOPOINT BIOSCIENCES CO., LTD., priority 2022, published 2025)
Numbering of substitutions follows the chain as printed.

B1: 27H8H3-hz1-B81 (antibody, human IgG1, kappa, V domains shown)
VH: QVQLVQSGAEVKKPGASVKVSCKASGYTFTTYWMHWVRQAPGQGLEWMGMIDPSDSYTSYAQKFQGRVTLTVDTSTSTAYMELSSLRSEDTAVYYCTRGSGPGLFAYWGQGTLVTVSS
VL: DIQETQSPSSLSASVGDRVTITCRASQGISNYLNWYQQKPGKAPKLLIYHTSRLHSGVPSRFSGSVSGTDFTLTISSLQPEDFATYFCQQGNTLPYTFGQGTKVEIKR
modifications: drug-linker DL-01 (B81) on cysteine sulfhydryl group; prepared by the TF-ADC (DAR8) method (1 toxin molecule per light chain); drug-linker DL-01 (B81) on cysteine sulfhydryl groups; prepared by the TF-ADC (DAR8) method (3 toxin molecules per heavy chain)
B2: 22F11H5-hz1-B81 (antibody, human IgG1, kappa, V domains shown)
VH: B1 VH with K13Q, S59T, T97A
VL: B1 VL with G28D, S30R, H55Q, V66G, F71Y, F87Y, T93M, L94P
modifications: drug-linker DL-01 (B81) on cysteine sulfhydryl group; prepared by the TF-ADC (DAR8) method (1 toxin molecule per light chain); drug-linker DL-01 (B81) on cysteine sulfhydryl groups; prepared by the TF-ADC (DAR8) method (3 toxin molecules per heavy chain)
B3: 2B12B10-hz1 (antibody, human IgG1, kappa, V domains shown)
VH: EVQLVESGGGLVQPGGSLRLSCAASGFAFSDSGMHWVRQAPGKGLEWVAYISRDSNTIYYADSVKGRFTISRDNAKNSLYLQMNSLRAEDTAVYYCGRRYYGDYFDYWGQGTLVTVSS
VL: DIVLTQSPATLSLSPGERATLSCRASQRVTNYLHWYQQKPGQSPRLLIKYASQSISGIPARFSGSGSGTDFTLTISSLEPEDFAVYFCQQSYNWPLTFGQGTKVEIKR
notes: Humanized IgG1 kappa
B4: 30G11B7-hz1 (antibody, human IgG1, kappa, V domains shown)
VH: B3 VH with Q13K, A28T, S32Y, H35F, D54G, N56T, Y95F, G97T
VL: EIVLTQSPDFQSVTPKEKVTITCRASQSISNYLHWYQQKPDQSPKLLIKYASQSISGVPSRFSGSGSGTDFTLTINSLEAEDAATYFCQQSYNWPLTFGQGTKVEIKR
notes: Humanized IgG1 kappa
B5: 2B12B10-hz1-B81 (antibody, human IgG1, kappa, V domains shown)
VH: B3 VH
VL: B3 VL
modifications: drug-linker DL-01 (B81) on cysteine sulfhydryl group; prepared by the TF-ADC (DAR8) method (1 toxin molecule per light chain); drug-linker DL-01 (B81) on cysteine sulfhydryl groups; prepared by the TF-ADC (DAR8) method (3 toxin molecules per heavy chain)
notes: also called 2B12B10-B81
B6: 30G11B7-hz1-B81 (antibody, human IgG1, kappa, V domains shown)
VH: B3 VH with Q13K, A28T, S32Y, H35F, D54G, N56T, Y95F, G97T
VL: B4 VL
modifications: drug-linker DL-01 (B81) on cysteine sulfhydryl group; prepared by the TF-ADC (DAR8) method (1 toxin molecule per light chain); drug-linker DL-01 (B81) on cysteine sulfhydryl groups; prepared by the TF-ADC (DAR8) method (3 toxin molecules per heavy chain)

Tests used:
human TF-His [1] = target: T1, human TF-His (human, UniProt P13726 33-251); assay: antigenic protein-based ELISA, after conjugation with B81 (TF antigen species not stated)
T1 construct: range 33-251; Recombinant extracellular segment expressed in HEK293-EBNA cells and purified on a nickel column; also called h.TF-His; h; TF-his; not shown: His tag from vector pTT5-His
Method: (§1) The ELISA plate was coated overnight with TF antigen (h.TF-His or c.TF-His antigen) in 50 mM carbonate coating buffer (CBS coating solution) at a coating concentration of 1 μg/mL in a volume of 100 μL at 4° C. The next day, the coating solution was removed, each well was washed once with 300 μL of PBS, and 100 μL of 2% BSA (Biotopped, A6020) in PBS was added to each well for blocking at 37° C. for 2 h. The test sample was subjected to a gradient dilution with 2% BSA in PBS to establish 11 concentration points. 100 μL of each of the samples obtained by the gradient dilution was added to the plate, and the plate was incubated at 37° C. for 2 h. The supernatant was removed, and each well was washed three times with 300 μL of PBST. 100 μL of HRP-conjugated secondary antibody in 2% BSA was added to each well, and the plate was incubated at 37° C. for 1 h. […] At the end of the incubation, the secondary antibody was removed, each well was washed five times with 300 μL of PBST, and 100 μL of TMB substrate (Huzhou InnoReagents Co., Ltd., TMB-S-004) was added to each well for color development for 5-20 min. 50 μL of 2 N HCl was added to each well to stop the reaction, and OD450 nm values were read using a microplate reader (manufacturer: MD, model: SpectraMax) and imported into GraphPad software for fitting and plotting to determine the binding of the samples to TF antigenic proteins.

cynomolgus monkey TF-His [2] = target: T2, cynomolgus monkey TF-His (cynomolgus monkey, UniProt A0A2K5VX02 33-253); assay: BLI (ForteBio Octet), antibody on ProA sensor, TF-His as analyte
T2 construct: range 33-252; Recombinant extracellular segment expressed in HEK293-EBNA cells and purified on a nickel column; also called c.TF-His; c; TF-his; not shown: His tag from vector pTT5-His
T2 sequence: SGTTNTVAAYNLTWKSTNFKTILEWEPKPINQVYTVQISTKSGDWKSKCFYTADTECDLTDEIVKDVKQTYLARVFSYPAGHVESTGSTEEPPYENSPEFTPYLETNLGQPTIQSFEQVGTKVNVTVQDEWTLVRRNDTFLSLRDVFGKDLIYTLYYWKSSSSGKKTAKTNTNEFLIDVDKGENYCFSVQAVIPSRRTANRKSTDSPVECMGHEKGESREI
Method: (§2) The dynamic affinity of the humanized antibodies was determined by ForteBio. The experimental procedures were as follows: a ProA sensor (18-5010, Octet) was taken out and pre-wetted with a PBST diluent (pH 7.4) for 10 min. The antibodies to be immobilized were diluted to 5 μg/mL. […] The program was set up, the sensor plate and sample plate were put in, then the program started. The sensor was regenerated with 20 mM glycine solution (pH 1.7). The data were analyzed using Octet analysis software to derive a result graph.

human TF-His [3] = target: T1, human TF-His; assay: as above
Method: as §2

[4] = target: T3, tissue factor (TF) on the surface of TF-positive tumor cells (human, UniProt P13726 33-295); assay: flow cytometry on KYSE520 cells
T3 construct: whole, on cells; The cell line used is named under assay or readout in each row; also called TF on NCI-H358 cells; TF on KYSE520 cells
Method: (§3) A TF low/medium-expressing cell line NCI-H358 (source: Nanjing Cobioer, CBP60136) and a TF high-expressing cell line KYSE520 (source: Nanjing Cobioer, CBP60658) were digested with trypsin, collected by centrifugation, and washed three times with pre-cooled PBS. The cells were resuspended in 1% BSA and seeded into a 96-well sharp-bottom plate at 3×10⁵ cells/well. Each of the antibodies obtained by the gradient dilution was added, and the plate was incubated at 4° C. for 1 h. The cells were washed three times with pre-cooled PBS. 1 μL of anti-human fluorescent secondary antibody (APC anti-human IgG Fc Antibody, Biolegend, 410712) was added to each well, and the plate was incubated at 4° C. for 0.5 h. The cells were washed three times with pre-cooled PBS, resuspended, and detected by a flow cytometer (Sony, LE-SA3800GA). The data were imported into GraphPad software for curve fitting.

[5] = target: T3, tissue factor (TF) on the surface of …; assay: cell ELISA on fixed NCI-H358 cells
Method: TF antigen-positive cells (MDA-MB-231 or NCI-H358 cells) were seeded into a 96-well plate at 5×10⁴ cells/well one day prior to the experiment. On the day of the experiment, the culture supernatant was removed, each well was washed once with 300 μL of PBS, and 100 μL of 4% paraformaldehyde was added to each well for immobilization at room temperature for 20 min. The paraformaldehyde was removed, and each well was washed twice with 300 μL of PBS, and 100 μL of 2% BSA in PBS was added to each well for blocking at 37° C. for 2 h. After the blocking was completed, 30 μL of the test sample (hybridoma supernatant or purified antibody) was added to each well and the plate was incubated at 37° C. for 2 h. The liquid was removed, and each well was washed three times with 300 μL of PBST. 100 μL of HRP-conjugated secondary antibody in 2% BSA was added to each well, and the plate was incubated at 37° C. for 1 h. […] The secondary antibody was removed, each well was washed five times with 300 μL of PBST, and 100 μL of TMB substrate (Huzhou InnoReagents Co., Ltd., TMB-S-004) was added to each well for color development for 5-20 min. 50 μL of 2 N HCl was added to each well to stop the reaction, and OD450 nm values were read using a microplate reader (manufacturer: MD, model: SpectraMax) to determine the binding of the samples to TF-positive cells.
The assay was performed as described in the general methods. Briefly, TF antigen-positive NCI-H358 cells were digested with trypsin, collected, seeded into a 96-well plate at 5×10⁴ cells/well and incubated overnight, and then immobilized with 4% paraformaldehyde. After the paraformaldehyde was removed and the cells were washed with PBS, the plate was blocked with 2% BSA at 37° C. for 2 h. Each of the antibodies obtained by the gradient dilution (starting at 10 μg/mL, 3-fold graded dilution, 11 concentration points) was added. The plate was incubated at 37° C. for 2 h.

[6] = target: T3, tissue factor (TF) on the surface of …; assay: flow cytometry on NCI-H358 cells
Method: as §3

cynomolgus monkey TF-His [7] = target: T2, cynomolgus monkey TF-His; assay: ELISA, plate coated with c.TF-His
Method: as §1
(§4) The assay was performed as described in the general methods. Briefly, an ELISA plate coated with a human TF-his protein or a cynomolgus monkey TF-his protein was blocked with 2% BSA at 37° C. for 2 h, and each of the antibodies obtained by the gradient dilution (starting at 10 μg/mL, 3-fold graded dilution, 11 concentration points) was added. The plate was incubated at 37° C. for 2 h.

human TF-His [8] = target: T1, human TF-His; assay: antigenic protein-based ELISA, before conjugation (TF antigen species not stated)
Method: as §1

[9] = target: T3, tissue factor (TF) on the surface of …; assay: cell-based or functional assay
[10] = target: T3, tissue factor (TF) on the surface of …; assay: cell-based or functional assay; remark: listed apart in the source
human TF-His [11] = target: T1, human TF-His; assay: ELISA, plate coated with h.TF-His
Method: as §1, §4

[12] = target: T3, tissue factor (TF) on the surface of …; assay: cell-based or functional assay; remark: listed apart in the source

| Binder | EC50 (human TF-His [1]) [ng/mL] | Kd (cynomolgus monkey TF-His [2]) [nM] | koff (cynomolgus monkey TF-His [2]) [s⁻¹] | kon (cynomolgus monkey TF-His [2]) [M⁻¹ s⁻¹] | Kd (human TF-His [3]) [nM] | koff (human TF-His [3]) [s⁻¹] | kon (human TF-His [3]) [M⁻¹ s⁻¹] | EC50 [4] [ng/mL] | EC50 [5] [ng/mL] | EC50 [6] [ng/mL] | EC50 (cynomolgus monkey TF-His [7]) [ng/mL] | EC50 (human TF-His [8]) [ng/mL] | coagulation time V50 (s), MDA-MB-231 cells + human plasma, 2 mM Ca2+, 50 µg/mL antibody [9] [s] | coagulation time V50 (s), MDA-MB-231 cells + human plasma, 5 mM Ca2+, 20 µg/mL antibody [9] [s] | IC50 (ng/mL), inhibition of FVIIa-induced IL-8 release by MDA-MB-231 cells [10] [ng/mL] | Maximum inhibition rate (%), FVIIa-induced IL-8 release by MDA-MB-231 cells [10] [%] | EC50 (human TF-His [11]) [ng/mL] | Endocytosis rate (%) on NCI-H358 cells, 2 h [12] [%] | Endocytosis rate (%) on NCI-H358 cells, 4 h [12] [%] |
| --- | --- | --- | --- | --- | --- | --- | --- | --- | --- | --- | --- | --- | --- | --- | --- | --- | --- | --- | --- |
| B1 | 3.43 |  |  |  |  |  |  |  |  |  |  |  |  |  |  |  |  |  |  |
| B2 | 8.83 |  |  |  |  |  |  |  |  |  |  |  |  |  |  |  |  |  |  |
| B3 |  | 33.8 | 0.0116 | 344000 | 13.8 | 0.00289 | 209000 | 140 | 3.88 | 187 | 13.6 | 6.65 | 882 | 24.2 | 128 | 94.1 | 6.72 | 34.3 | 49.6 |
| B4 |  | 146 | 0.053 | 364000 | 25.8 | 0.00506 | 197000 | 138 | 4.73 | 145 | 20.8 | 7.68 | 1450 | 29.2 | 129 | 100 | 7.91 | 19.8 | 46.1 |
| B5 | 3.76 |  |  |  |  |  |  |  |  |  |  |  |  |  |  |  |  |  |  |
| B6 | 7.75 |  |  |  |  |  |  |  |  |  |  |  |  |  |  |  |  |  |  |
